Patent publication US11674959B2, “Methods for identifying and preparing pharmaceutical agents for activating Tie1 and/or Tie2 receptors” (The Johns Hopkins University, priority 2017, dated 2023)

Experiments:
MEC monolayers = test: FITC Transwell permeability assay; type: cell-based, human; conditions: single agent alone; FITC-Dextran 40 kDa, three hours
Description: The integrity of these junctions is also important for the regulation of monolayer permeability by controlling the size of intercellular openings. The effect of the AXT107 on EC permeability was further investigated by the transendothelial diffusion of FITC-labeled dextran across MEC monolayers seeded onto permeable Transwell® substrates.
(§1) Human dermal microvascular endothelial cells (Lonza) were maintained at 37° C. and 5% CO2 in EBM-2MV medium (Lonza) and used between passages two through seven. Where applicable, cells were serum starved in EBM-2 medium (Lonza) with no supplements. For FITC-Dextran permeability assays phenol red-free media were used to avoid auto-fluorescence. AXT107 were manufactured at New England Peptide by […], lyophilized, and dissolved in 100% DMSO.
Transwell, twenty-four-well inserts (Corning) were coated with 7.5 μg/cm^2 FN1 for two hours at 37° C., aspirated, and then dried for thirty minutes at room temperature. Wells were then seeded with 7.5×10^4 MECs in 100 μl of EBM-2 media (without phenol red) and allowed to settle for thirty minutes at room temperature. 1 ml of EGM-2 media was then added to the bottom chamber and an additional 200 μl to the top chamber. The plate was incubated for twenty-four hours at 37° C. after which the media was aspirated and an additional 7.5×10^4 MECs were plated in each well as described above. After forty-eight hours at 37° C., the media was aspirated from both chambers and the cells were washed twice in dPBS containing Ca^2+ and Mg^2+, once with EBM-2 media (without phenol red) and serum starved in EBM-2 media applied to both chambers for two hours at 37° C. After this incubation, 100 μM AXT107 or an equivalent amount of DMSO vehicle was added and incubated for an additional ninety minutes. In the top chamber, the cells were then treated with 200 ng/ml Ang2, 100 ng/ml VEGFA, both, or PBS control and in the bottom chamber, the cells were then treated with 25 μg/ml FITC-Dextran (40 kDa MW). AXT107 was also added in both chambers to maintain a concentration of 100 μM. After three hours, 10 μl was removed from the top chamber of each well and mixed with 90 μl of water in a clear bottom, 96-well plate. Fluorescence values for each sample were calculated using a Perkin Elmer plate reader.

Tie2 = test: Western blot of MEC lysates, Ang1/2 signaling: Tie2 phosphorylation; type: cell-based, human; conditions: ligand alone, no AXT107
Description: To investigate the effects of the integrin inhibitor AXT107 on Tie2 signaling, confluent monolayers of microvascular endothelial cells (MECs) on fibronectin-coated dishes were treated with various concentrations of AXT107 followed by exposure to the Tie2 ligands Ang1 or Ang2.
as §1
For Ang1/2 signaling investigations, cell culture dishes (10 cm diameter) were coated with 5 μg/ml fibronectin (FN1; Sigma-Aldrich, St. Louis, Mo.) for two hours at 37° C. The FN1 solution was then removed by aspiration and 5×10^6 microvascular endothelial cells (MECs; Lonza, Walkersville, Md.) were plated in EGM-2MV media (Lonza) and cultured for forty-eight hours at 37° C. The cells were then serum starved for sixteen hours in serum-free EGM-2 base media (Lonza). AXT107 (0-100 μM, as indicated) was subsequently added to each culture and incubated for seventy-five minutes at 37° C. The cultures were then treated with 1 mM sodium vanadate (New England Biolabs, Ipswich, Mass.) for fifteen minutes to enhance the phospho-Tie2 signal followed by stimulation with 200 ng/ml angiopoietin (R&D Systems, Minneapolis, Minn.) for an additional fifteen minutes. The cells were then transferred to ice, washed twice with ice cold Dulbecco's phosphate-buffered saline (dPBS) containing Ca^2+ and Mg^2+, and collected by scraping in 500 μl of 1× Blue Loading Buffer (Cell Signaling, Danvers, Mass.). Lysate samples were then sonicated, boiled, and resolved by SDS-PAGE. Specific proteins were identified by Western blot, using the following primary antibodies: Cell Signaling—phospho-Tie2 (Y992) (Cat #: 4221), Tie2 (Cat #: 7403), phospho-Stat3 (Y705) (Cat #: 4113), Stat3 (Cat #: 4904), phospho-Akt (S473) (Cat #: 4058), Akt (Cat #: 9272), phospho-p44/42 MAPK (T202/Y204) (Cat #: 4370), p44/42 MAPK (Cat #: 4695); BD Transduction Laboratories—β1 integrin (Cat #: 610467); Millipore—α5 integrin (Cat #: AB1928) and detected with HRP-conjugated goat anti-rabbit and sheep anti-mouse secondary antibodies (GE healthcare).

| Molecule | FITC-dextran diffusion across the monolayer, agent alone (MEC monolayers) | Tie2 phosphorylation by ligand alone (Tie2) |
| --- | --- | --- |
| VEGF [reference compound] | appeared to increase permeability (although non-significantly) | – |
| Ang1: angiopoietin 1, Tie2 ligand (protein) SNQRRSPENSGRRYNRIQHGQCAYTFILPEHDGNCRESTTDQYNTNALQRDAPHVEPDFSSQKLQHLEHVMENYTQWLQKLENYIVENMKSEMAQIQQNAVQNHTATMLEIGTSLLSQTAEQTRKLTDVETQVLNQTSRLEIQLLENSLSTYKLEKQLLQQTNEILKIHEKNSLLEHKILEMEGKHKEELDTLKEEKENLQGLVTRQTYIIQELEKQLNRATTNNSVLQKQQLELMDTVHNLVNLCTKEGVLLKGGKREEEKPFRDCADVYQAGFNKSGIYTIYINNMPEPKKVFCNMDVNGGGWTVIQHREDGSLDFQRGWKEYKMGFGNPSGEYWLGNEFIFAITSQRQYMLRIELMDWEGNRAYSQYDRFHIGNEKQNYRLYLKGHTGTAGKQSSLILHGADFSTKDADNDNCMCKCALMLTGGWWFDACGPSNLNGMFYTAGQNHGKLNGIKWHYFKGPSYSLRSTTMMIRPLDF | – | induced phosphorylation of Tie2 |
| Ang2: angiopoietin 2, Tie2 ligand (protein) YNNFRKSMDSIGKKQYQVQHGSCSYTFLLPEMDNCRSSSSPYVSNAVQRDAPLEYDDSVQRLQVLENIMENNTQWLMKLENYIQDNMKKEMVEIQQNAVQNQTAVMIEIGTNLLNQTAEQTRKLTDVEAQVLNQTTRLELQLLEHSLSTNKLEKQILDQTSEINKLQDKNSFLEKKVLAMEDKHIIQLQSIKEEKDQLQVLVSKQNSIIEELEKKIVTATVNNSVLQKQQHDLMETVNNLLTMMSTSNSAKDPTVAKEEQISFRDCAEVFKSGHTTNGIYTLTFPNSTEEIKAYCDMEAGGGGWTIIQRREDGSVDFQRTWKEYKVGFGNPSGEYWLGNEFVSQLTNQQRYVLKIHLKDWEGNEAYSLYEHFYLSSEELNYRIHLKGLTGTAGKISSISQPGNDFSTKDGDNDKCICKCSQMLTGGWWFDACGPSNLNGMYYPQRQNTNKFNGIKWYYWKGSGYSLKATTMMIRPADF | influenced FITC-dextran diffusion across the monolayer | insignificant effects by itself |
